Experimental data as given in patent publication US20220064329A1 (Novo Nordisk, published 2022).

Columns and labels:
FVII(a) variant T185A = target: T1, FVII(a) variant T185A (human, UniProt P08709 61-466); assay: SPR, Biacore T200, 25 C; FVII(a) variant captured on anti-Gla Ab 4F6, mAb0842(OA) injected
T1 construct: hFVII alanine variant in cell culture supernatant
T1 sequence: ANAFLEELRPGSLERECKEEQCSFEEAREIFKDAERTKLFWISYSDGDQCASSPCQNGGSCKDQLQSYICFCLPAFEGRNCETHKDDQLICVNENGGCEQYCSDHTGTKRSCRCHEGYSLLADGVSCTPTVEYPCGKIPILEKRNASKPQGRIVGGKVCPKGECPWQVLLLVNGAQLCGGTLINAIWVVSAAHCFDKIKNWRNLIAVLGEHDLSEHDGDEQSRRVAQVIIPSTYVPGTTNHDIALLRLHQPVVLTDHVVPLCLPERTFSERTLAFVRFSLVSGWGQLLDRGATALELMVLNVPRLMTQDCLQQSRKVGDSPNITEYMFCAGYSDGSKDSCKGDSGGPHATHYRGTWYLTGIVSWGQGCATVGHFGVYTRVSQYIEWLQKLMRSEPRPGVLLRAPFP

FVII(a) variant N184A = target: T2, FVII(a) variant N184A (human, UniProt P08709 61-466); assay: as above
T2 construct: hFVII alanine variant in cell culture supernatant
T2 sequence: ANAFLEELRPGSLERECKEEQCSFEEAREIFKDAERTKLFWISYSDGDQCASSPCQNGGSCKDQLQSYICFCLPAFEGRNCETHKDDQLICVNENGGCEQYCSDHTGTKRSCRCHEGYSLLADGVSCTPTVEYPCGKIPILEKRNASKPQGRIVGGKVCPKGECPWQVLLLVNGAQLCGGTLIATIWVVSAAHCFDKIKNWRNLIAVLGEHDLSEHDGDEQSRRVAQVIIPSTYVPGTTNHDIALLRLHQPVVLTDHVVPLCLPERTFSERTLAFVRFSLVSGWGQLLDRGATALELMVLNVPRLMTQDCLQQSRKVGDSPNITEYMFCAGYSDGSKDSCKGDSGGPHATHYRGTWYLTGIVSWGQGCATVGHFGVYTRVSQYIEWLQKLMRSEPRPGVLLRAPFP

B1: mAb0842(OA) (antibody, human IgG4 S228P, kappa)
heavy: QVQLQESGPGLVKPSQTLSLTCTVSGYSISSDSAWSWIRQPPGKGLEWIGYIQYSGSTNYNPSLKSRVTISRDTSKNQFSLKLSSVTAADTAVYYCARSVNYYGNSFAVGYWGQGTLVTVSSASTKGPSVFPLAPCSRSTSESTAALGCLVKDYFPEPVTVSWNSGALTSGVHTFPAVLQSSGLYSLSSVVTVPSSSLGTKTYTCNVDHKPSNTKVDKRVESKYGPPCPPCPAPEFLGGPSVFLFPPKPKDTLMISRTPEVTCVVVDVSQEDPEVQFNWYVDGVEVHNAKTKPREEQFNSTYRVVSVLTVLHQDWLNGKEYKCKVSNKGLPSSIEKTISKAKGQPREPQVYTLPPSQEEMTKNQVSLSCAVKGFYPSDIAVEWESNGQPENNYKTTPPVLDSDGSFFLVSRLTVDKSRWQEGNVFSCSVMHEALHNHYTQKSLSLSLGK
light: EIVLTQSPATLSLSPGERATLSCRASQGISDYLHWYQQKPGEAPRLLIKYTSQPATGIPARFSGSGSGTDFTLTISSLEPEDFAVYYCQNGHSFPLTFGQGTKLEIKRTVAAPSVFIFPPSDEQLKSGTASVVCLLNNFYPREAKVQWKVDNALQSGNSQESVTEQDSKDSTYSLSSTLTLSKADYEKHKVYACEVTHQGLSSPVTKSFNRGEC
chain: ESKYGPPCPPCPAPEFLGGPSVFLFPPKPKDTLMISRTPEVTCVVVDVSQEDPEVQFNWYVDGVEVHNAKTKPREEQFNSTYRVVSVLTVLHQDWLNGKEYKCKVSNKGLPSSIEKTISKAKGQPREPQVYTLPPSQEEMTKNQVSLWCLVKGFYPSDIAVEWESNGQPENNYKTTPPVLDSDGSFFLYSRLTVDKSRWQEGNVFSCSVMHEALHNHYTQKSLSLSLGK
notes: also called monovalent humanized 11F2 antibody; one-armed anti-FVII(a) antibody
FVII(a) variant T185A
  Kd: 1.01 nM
FVII(a) variant N184A
  Kd: 1.91 nM
